These are literature values, as cited in patent publication US5866683A, “Isoelectric point markers for isoelectric focusing with fluorescence detection” (Laboratory of Molecular Biophotonics, priority 1995, dated 1999).

B1: amyloglucosidase (protein, UniProt P69328 25-640, looked up)
Glucoamylase: ATLDSWLSNEATVARTAILNNIGADGAWVSGADSGIVVASPSTDNPDYFYTWTRDSGLVLKTLVDLFRNGDTSLLSTIENYISAQAIVQGISNPSGDLSSGAGLGEPKFNVDETAYTGSWGRPQRDGPALRATAMIGFGQWLLDNGYTSTATDIVWPLVRNDLSYVAQYWNQTGYDLWEEVNGSSFFTIAVQHRALVEGSAFATAVGSSCSWCDSQAPEILCYLQSFWTGSFILANFDSSRSGKDANTLLGSIHTFDPEAACDDSTFQPCSPRALANHKEVVDSFRSIYTLNDGLSDSEAVAVGRYPEDTYYNGNPWFLCTLAAAEQLYDALYQWDKQGSLEVTDVSLDFFKALYSDAATGTYSSSSSTYSSIVDAVKTFADGFVSIVETHAASNGSMSEQYDKSDGEQLSARDLTWSYAALLTANNRRNSVVPASWGETSASSVPGTCAATSAIGTYSSVTVTSWPSIVATGGTTTTATPTGSGSVTSTSKTTATASKTSTSTSSTSCTTPTAVAVTFDLTATTTYGENIYLVGSISQLGDWETSDGIALSADKYTSSDPLWYVTVTLPAGESFEYKFIRIESDDSVEWESDPNREYTVPQACGTSTATVTDTWR
B2: trypsinogen (protein, UniProt P00760 18-246, looked up)
pro-form: VDDDDKIVGGYTCGANTVPYQVSLNSGYHFCGGSLINSQWVVSAAHCYKSGIQVRLGEDNINVVEGNEQFISASKSIVHPSYNSNTLNNDIMLIKLKSAASLNSRVASISLPTSCASAGTQCLISGWGNTKSSGTSYPDVLKCLKAPILSDSSCKSAYPGQITSNMFCAGYLEGGKDSCQGDSGGPVVCSGKLQGIVSWGSGCAQKNKPGVYTKVCNYVSWIKQTIASN
modifications: pro-form
notes: conventional protein pI marker
B3: lentilectin (protein, UniProt P02870 31-210; P02870 218-269, looked up)
Lectin beta chain: TETTSFSITKFSPDQKNLIFQGDGYTTKGKLTLTKAVKSTVGRALYSTPIHIWDRDTGNVANFVTSFTFVIDAPSSYNVADEFTFFIAPVDTKPQTGGGYLGVFNSKEYDKTSQTVAVEFDTFYNAAWDPSNKERHIGIDVNSIKSVNTKSWNLQNGERANVVIAFNAATNVLTVTLTYP
Lectin alpha chain: VTSYTLNEVVPLKDVVPEWVRIGFSATTGAEFAAHEVHSWSFHSELGGTSSS
notes: conventional protein pI marker, three pI's
B4: equine myoglobin (protein, UniProt P68082 2-154, looked up)
Myoglobin: GLSDGEWQQVLNVWGKVEADIAGHGQEVLIRLFTGHPETLEKFDKFKHLKTEAEMKASEDLKKHGTVVLTALGGILKKKGHHEAELKPLAQSHATKHKIPIKYLEFISDAIIHVLHSKHPGDFGADAQGAMTKALELFRNDIAAKYKELGFQG
notes: as for B2

Several values for one entry are separate records, joined by “and”; a condition that tells them apart may be missing. Equal entries are not always repeated.

For this series the following is noted: unlabeled protein.
With B1, the “pI (known) of conventional protein pI marker” value (“pI (known)” below) was 3.50.
On to B2, for which the “pI (known)” value is on record as 9.30.
Consider B3, for which the “pI (known)” value was 7.80 and 8.00 and 8.20.
For the molecule B4, the “pI (known)” value is 7.00.
